Experimental data reported in the supplement of paper PMC10567573.

B1: TCEB3B (parent)
chain: STTALGDKQRKANESKGTRESWDS

Variants of: B1
Test: protein stability index of a GFP-peptide fusion (GPS, HEK-293T) (PSI 1-6); higher = more stable
Settings: c terminus: a fixed tail appended
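Note: lentivirally expressed fusions sorted by FACS into six bins by GFP to DsRed ratio, PSI derived from sequencing read proportions per bin multiplied by bin number.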

Protein stability index, by site and new letter:
T3: E 4.33; S 3.57; K 3.56; M 4.1; L 3.83; Q 4.35; I 3.72; H 4.21; Y 3.77; V 4.36
S1: W 2.74; H 3.64; V 4.06; R 3.88; E 3.85; G 3.9; L 3.67; K 3.12; C 3.47; D 4.16; A 3.94; I 3.58; N 4.3; M 4.22; Y 3.6; P 3.77; F 2.81; T 3.61; Q 3.67
A12: I 3.63; M 3.83; C 3.99; T 3.59; D 4.36; R 3.56; L 4.03; S 4.3; E 4.49; Q 3.92; F 3.76; P 4.17; G 4.21; V 3.88; W 3.34; Y 3.4; H 3.88; K 3.13; N 4.2
D7: T 3.52; E 4.36; V 3.6; N 3.43; R 3.88; S 3.43; G 3.83; P 3.5; H 3.58; W 3.39; L 2.88; Y 3; I 3.23; M 3.2; K 4.05; C 3.57; Q 3.15; F 3.24; A 3.49
K11: E 4.72; L 3.65; P 4.23; F 3.79; I 4.02; V 4.07; A 4.3; D 4.32; W 3.99; R 3.57; N 4.39; S 4.03; C 4.53; Q 3.79; G 3.88; M 3.86; Y 4
